Measurements reported in a protein production outcome set (Wang et al. 2014).

Assay: label from the status in PepcDB records

Row | Sequence | protein production
1 | MLHRSPKRMVAVALFLACLVISLTTVTFAAPAPTIQIQNPMVEGIRSPLRIASDSLGGVYVSDSLAKGVLKYDVVGHLAQTIKTAAPPQGIAVASDGTLLVGQGTYVSMYSAAGQEIGKLGAGEGQFKMADGITVDDDGSIYVVDCLDNSVQIFNAAGSFVKKFGSFGTTPGKFSTPSGIAFEKVSRQVAVVDTRTGRIQFFDKTGAYVRTIGSFGTNPLRFTAPQGVSFEYSSGSTPVLKRMYVVDTFQSTVQAIDPAATPVFLSYIGTYGSGNGKLMVPSDVLFDQATGRLLVVNGFGNVSVYGVDGGGVSVAVDLIPPALTINPVVSPFMSPTLDLSGTVEAGARLTIATGGTTTVGAISFPTPTTWQTTLSGFAPGGTTITVTARDAANNATNQSVTVSYLQSGPMLTMEPLPTFTADTFQQLSGLVDPGSVVTVTNATTGASAKALVFGNTWSYRLPLAAGANSITVKAEKSMSAATTVSATTTLDAIPPALAVSALADGSYTSGQVQNIQVMVTDANLDVVTLNGQQIVPVNGSYSTAITLKPGPNVIMAAAVDLAGNVTTDIRTIIYDGTRPVVSFTTPAEGTYVTSDHVSVSGIVDETAVVTVAGLPARMDGTSWSADVPLVPGMNTIDVVAVDLAGNVGSVKRTVTYDTEAPALVVSAPSQDVVTNRPTFGFAGNVTDPSPVTLTAEVDGAPVAVTVTDGSFTLAVTFANEGSHAVTFTATDAAGNASRVTRTVIYDGTAPALTLDPVNTPYPSVLTGTVEAGAAVTVEDRNGSAGTVTVSGEKWNAALEVGGYDAASLAVRATDVAGNSTVRSLVVNVPDGDLNGDGAVTVHDVILALRMFTRQMVPTANQLAHGDIGPLYQGKAKPNGVVDLVDAILIMRKALGMPSW | failed
2 | MLIEIPNVFSKQEVSHLREQLDARRWIDGNQTSGAMATTRKRNQQLDKDDPVAVALGQQIMDRLLAHPQFVSAALPLQFYPPLFNRYQGGETFGYHIDNAIRSTPDGMIRTDLSATLFLSEPENYQGGELVIQDTYGQQSIKLSAGSLVLYPSSSLHQVTPVLSGERTAAFMWLQSMVRDEGQRRLLFQLDQSIQSLTAQTAAEQELFNLSGVYHNLLRRWSEL | not failed
3 | MLIGIDLGTTNSAVALWHEGEARLVPNSLGALLTPSAVSVLQDGTTLVGAAAFERMAAKDGAAATSFKRLLGTDRKVRLGRKEFSAEDLSALVLQSLCADVEAHTGERPTEAVITVPAYFNDRQRKATRRAGELAGLSVRRLINEPTAAALAFGLKDKAEREPFLVFDLGGGTFDVSIVEMFEGIVEVRASAGDNRLGGDDFNGALAMAVKGRLDPDERLATLGEARAQALLLQAAERTRRALTDAPEAEFAVTAGDERLSTTVTASEFEAQAEGLLRRLRDPVVRALRDSQIDAASLSEIVLVGGATRMPLVRKAITRLFGRFPNASVHPDHAVALGAAIQGGLIARDGGLEEIRITDVCPFTLGIETAEHSVRGTIQQGLFSPIIERNTPVPVSRSGVYSTMGDGQKQIAVHIYQGEAREVSGNVKLGTLSVPVPSRPAGEVSIDVRFSYDSSGLLEVDVEVPLTGTRHNLVIIDEEDRKAAKDLDARRKALAALKHHPREEAANQLLLARAERCYEEFLGDVRAVIGGRTLSFTTALDSQDPRRIADAAAELAELLDMLEANPVL | failed
4 | MLIGPYTHDAFMEEARKFHGYPAPGLIIGGYMVEMARRALPEGILFDAISETGQCLPDAVQMLTPCTIGNGWLRIRNFGLYALSLFDKHTGVGVRVHIDSQKLERFPEIKAWFLKLKPKREQDTERLQQEIREAAFDLLTLRPVTIRPDALGHGGKGGTIVACPLCGEYHPSAFGGICRSCQGESPYEVGPGLSFPGQPELRAVPVEEAVGKHALHDMTRIVPGESKGAEFVAGQELGAGDVCRLQMMGRNRVYVREETGDMQGWVHEDEAARAFGELMPGDGIEPEGPVREGKINFRATRDGVLVVDTRRLEQFNLVPDVMCATRHTHGVVLAGTRVAGTRAIPLYLSTLNLAKATTLLEGGPLFSVAPMRKAKVGVLVTGTEVFRGIIEDKFAPIITQKANQLGCDMAGTVIAPDDAPLITRGVHDLLAAGADLIVTTAGLSVDPDDMTRKGLLDAGLTEMLHGVPVLPGTMTLIGRIGGAQVIGVPACALFFKTTALDLLLPRLLAGLSVTRLDLARMGHGGLCMECRSCSFPKCPFGRG | failed
5 | MLIIAILCLGLLVAQGVASLILLSRLVKGARRRSPLAPVFLPEEGVRNVSVVVPTLNEAARVTPCLLGLAQQGPPLREILVVDSRSTDGTQAVVQARQKDNPRLQLLTDDPLPDNWVGRPWALNYGFRHSDPASEWILGIDADTQPQPGLVASVVQAAEEENYDILSLSPQFILQSPGEWWLQPALLMTLLYRFESAGVREQAPETVMANGQCFLCRRLVLEALGGYELAARSFCDDVTLARVAAQRGYRVGFLDGANLIRVRMYEGIGETWREWGRSLDLKDATVPARLWAEVIFLLLVQGLPILFFSLLLMLWGEDFDFLTLRLAIALNGFLLLVRWGMLLAIYPSYYRPSEKGAWSYWLSPLADPLAVTRIIISASQTPKQWRGRIYPGAS | failed
6 | MLIIFASGFALRAGTVTVAGVYSEAHYQPLMYDMDSYYNLRLASNLLNEGELSEGGWDRYSYYPPGVPLDYPPLLPHLTVTLYLLFTWLLPGLTDTAFWLPAIIAPLAGVAVFAAARSLDCDDVSATTAGLLATAAPFYFMRTIPGFYDTDMFNLVLPLAILLTLHLSLRDGDWRMAVLSGALMGVFAAAWNGWQLIYSIMALSVILHSLLYRRREPLIFLITSTLLIVLMDPRAIPSIPVGLMKIPVARADPFPDPYANITELQRPGFDDVLMALGPGLLLAGLAGFRSLFRDWRDSMVLPVIILWTLTGAASLLWGIRFSELLTAPLLITSALFLADLGTASRVPPGFRRKLHVAVAIMVVLPSLIISTGQYSALHPRVDDGLLDAADYIRAKTPPDTVVISNWVHGHFFAFMARRPVNFDGRLAYIETAAKRGPGYPLDPRIPGVYREYWHDPGPNDHGPHLADEILSMLASSGDEAYLEVLNATGDPAGSAVILGDVLAVDGSSRAEYLQDRGLDPVASGRVASTLSRRSGYVLVTCDRLIDKGYWILYYGNWNFTGKTRKPVYSTGSIVQGWPLRTSDGLLWDGERISFNGLRVSELYLVDGGVRKVEGDPQGGLVAFVLYDRNRTVVLERGYEDSMFARLVLLGDGGGVFRAVMRSRDVTVWEPIRDWNT | failed
7 | MLIILFLIQMILIVKALGLKGLFIFLALIFGLFVLCKVSLKVKLPRNKYSKVTWEDMPWLYDGVARMANKARISTPNIYIEDNPIPTAYSFQNSIVLSAGLLEILNEEEVLAVAAHEIGHIKNGDTVLFPLLRYGKYIMGIITAIIVIFATGFITKVVSFLVFVIYAFSLLKFLRKREFLADRVALQIAEVPYALKSALEELKFYEEALKTKEMPLPTIQPSIRREEKREPQIFPLPSTHPSYDERIARIIAIVEMYRRLEFLN | failed
8 | MLIILTGLPSVGKSTFSKAFSKKMAEKNIDNIILGTDLIRESFPVWKESYEEFIRDSNNYLIKEALENKFSVIVDDTNYYNSKRRDLMNIAKECDTNYVTIYLKAPLNLLLKRNIERGQKIPNEVIKNMYEKFDTPGTKYAWDLPDITVDTTEKIDYNEILNEILEINENKNLKIEEDKIPKSEPVESDLVKIDSLTRNIVGNLIKTGKIDKKDIKLLSEIRKSFLKDCKKIESEKLDFEKIEKDFLDYLNKNLK | failed
9 | MLIKKNALSILKIVFPIAVLLFVIYQSKKELTNLSFKRTLMVINGLERTDLFMLVLIGLLAVAAMSLYDYVLKYSLRLSITNGKVFRVSWIANSFNNVLGFGGLAGVGLRMMFYKEHTKDHKALVKGIAWLTSSMLLGLSVFSIFVAARVLPVDEVIHEKPWLWAVVIGFALILPLSLAVSKIKDRKAGDEENADKVKNPIFAYIGASVVEWLMAGTRHLFCFVRYGHSCRYQVCVRGVRHCGDRRNDQPRAGRLRLV | failed
10 | MLIKLTGGTVYDPANGIDGQVRNLFIRDGRIVHSLNGATPDQEYDLRGKVVMAGAIDMHTHIGGGKVTIARNLLPEDHRADPEPRRGLMRAGCGHAAPSTLTTGYRYAEMGYTAGFEPAVLPINARQAHMEMADVPLLDVGGYVMLGSDDFFLRLLSAGSDQKLINDYVAWTIRSAKAIGIKVVNPGGISAFKFNQRMLDLDEKHVYYGVTPRQILKSLARAVHELGVPHPLHVHGCNLGVPGNVETTLNTISGIEGLPMHLTHIQFHSYGVEGDRKFSSGAARIAEAINANKNITIDVGQILFGQTVTASGDSMRQHANAGHAHPDKWVCMDIECDAGCGVVPFKYRDKNFVNALQWCIGLETFLLIDDPWRVFLTTDHPNGAPFTTYPHLIRLLMDKSFRNDMLATINPEAAALSTLGSIDREYSLYEIAIMTRAGAARLLGLTDRGHLGAGAAADITVYTDQADKEKMFTRPDYVFKDGELVVRNGEVVKVVWGNLHTVQPEFDNGIEARLRDYFDRYHTMKLDNFVINDWEIEGDGRSKILVHPCHQGTRSLEHHHHHH | failed
11 | MLILKNSMASPHPFPWPQRFTVMALTFAWGLSLPVLAQTKSAVQWYNDGVDKLAAQNFSGAIADFTESIKLNDQDADAYYNRGYAKHVLGQYQAAITDYNQAISLNPEFAYALGNRCYAYFLLSQYDKAIQDCSNAIEINPNYADFYVYRGNSQSQLGNETTAIADYNDAIRINAQHANAYYNRALTHNRLKQDQQALADYNQSIQLDPDSAEAYFNRGLTQYRLGDEPKAIADLTKAAELFNAQEKKDMAQKAEAILTQIRAIDA | failed
12 | MLINSEIISLSGSMYEDRSYQNEAIDFIASKLANYPGVALEAPTGSGKTMMALLGSLKYAYNGHLKILYLVRTNSQEEQVIRELRTISKNRKIRALPMQGRINLCILYKTADDLKEATAESLSKFCNSRKRQVMEGHQEACPYYTIKVRSKETKDFLFENLPTAEEFYEYAFTNNLCPYESIKASLSDADIVVAPYMYFLNKTVADRFLSHWGVSREQLIIVLDEAHNLPDIGRSLGSFRISIESLNRSEKEAQSFGDPELDRGVHVTDFIEMIRSTLERTIKERVKEDDVRIRFQEFKEYLMIMNKKSEKSIRDLNNYLYLFGEYVENEKEKAGKVPVSYCSSLAQRLEAMMDEDDAMYAAILSKSESGYIQASCLDPSSILSSLKESKTIHMSGTLEPFEFYSDVTGFDIPFRRIENVFPIENRFVSYYEGVSTKYDTLDENEIRKLASIIENIVNGVKRNTIVYFPSYAVMDKVIGSGLDFDFLQEKKNLDQTEFYDVVKKFRNGGKPLLAVSGGRLSEGMNFPGRELELILIAGIPFPRPDATNRALYDYYEMKYKKGWEYAVLAPAIIKIRQEIGRLIRGKDDHGACVILDKRAKQFRRFIPDLVKTDDPVNDINTFFSNFK | failed
13 | MLIYEGHIDKLIRRGQEKGLDIFNLIRAAVINPVEHYGLNVGLLREGDPADFITVDDLKSFNVLSTFIDGECVYENGKVLFPMKLEHHHHHH | not failed
14 | MLIYNLAIHSYLGCDSLALLPKANTLSKEKNINNADDTIKDQILASIDSFIYTKDLSGKYTYANQAVLDLFEKNLADVIGFDDTHFFDLALSKQLKANDRMVMDQVIRIENEESNFIRAKNETRIFKVVKKPLFDHLGNVNGICGISTDITVEKQLQEQVNEQSYLLETMLNNIDAHIYVKDCERTFLYVNNRVAELFGDKAENIIGKKDTDILPKEIAEHFYQSDKQVFETNQKQVIEETTHGENGDNCHYISTKVPFDRPDKLPALIGFSTDVTELFKLKEEFKLLANTDPLTNLYNRRFFIEQAEKEYQRAKRYSLSMTLISIDIDHFKSINDQFGHPAGDQVLIEIAKQLKASLRQTDILARIGGEEFSILLPETSAMSAMTFAERIKEEQSRLIITGDWQGEINLSVSIGVSSLIASDKAFDVLFSRADKALYQAKNTGRNTVCYL | failed
15 | MLKELFVNLTILITFNYLFTHLFKERLVHKKDSISFQAVKGLACGLLGVILMVFGFTYQHSIIDLRNIPIMIAALYGGWVSTATALAMITAGRLLITMNTSALYSVIIICIAAIPSLIVSRRKKVQLKHAFYLLIITNSLISFSFYFLIDLHSYELHLYFWIISIAGGMLSLYIIDHETNAHLLFKQYKFQAHFDFLTGVYNRRKFEETTKALYQQAADTPHFQFALIYMDIDHFKTINDQYGHHEGDQVLKELGLRLKQTIRNTDPAARIGGEEFAVLLPNCSLDKAARIAERIRSTVSDAPIVLTNGDELSVTISLGAAHYPNNTEQPGSLPILADQMLYKAKETGRNRVCFSEKKE | failed
